# Results from the DeepSol protein solubility set.
# Assay: soluble on expression in E. coli; label from the status in PepcDB or PDB records
row,Sequence,soluble on expression in E. coli
1,MAHHHHHHMNEEILKNIKVNNNFLEFEEIIKDINTPFNFIDLVEIPCVPVVDLYGLSLLNNEAYLEYKSGLREDKLNADDEIKLTLFFAVKLYKKNIIRIKFPSYYDIIETLKFDPVSVTIGLFNQFYFETAYELCNLLPINEWPSTNFYDILRKAEKTRIHFLINNKTKLNSYFLEGLTNKEKKIYKYFLEGTSKEREKLNKETTLFHFYEKEKC,not soluble
2,MAHHHHHHMNGMRAYNLGSRRYHDVLRLQEAIFRKKIDRQMRYIRGDKSARLIPNVVLLVEHSSPVYTIGRRDTSNGIKAGCAAEVVKTRRGGGVTFHGPGQVTMYPIVNVQVLWKQCTASDKPRSPIEWFSSVLEQAMINVAGEYNIPAHRGRVGVWSDSWGDVAPRKMGFVGLQLGNWVSMHGAGLNVSNNLLYFNDIVMCEMPNEAATSLVEELRLRGLSGAEPTPHVIAPRLLHHFLLSMQQQESVVNTELVDLSIDGSWERSILCELE,not soluble
3,MAHHHHHHMNIEDDENKEKKETCLSYIKKINMSEIINDEAIGKRAEYLWNLALSAVYINVKLSMKYITLIKKITKNNLLFDNICCHYCNLIYIPFYNCKITHSPNQGKATYTCLLCKRKKKINLQHLSKHKNIYPLKHSDKHKPSTSNLSNVNFFLINEIDNYEIKKNNVPLNKDDTSNTENQLITKQENKNEDILKDVSCADMQKEEHIINQDNIINQDNIINQDNIINQDNIINQDNIINQDNIINQDNIINQDNIINQDNIINQDNIINKNDMYQNLSYLFRIDYGINKDDTQKGNEIYDKSIVNESEKCKSVHIENNKNDDNKNMNSESKNIKNERKRKSQNNNIAQNKNQGFPNVNMNDGFLNFNKSKKKKGKSILDIL,not soluble
4,MAHHHHHHMNPMDALIARAAAEERQQAKMKQKSTRVSGESDLDHPSPSAAFPDSVISRGERASILCYVDPAATTTSSNFSVRRLRTFSACPTFKGGMIMRLTMCHDAQHLTVAFESGHIVLARYRDADVIDMADEPGEVCHAGGSMSVARVRNVTRAFADSALACWWSGRRMLACSSEGGMHCYDVSATAEGLLEAHLVWSVTLRKGIGSVFLQRNLVVAGCWDSTLRLYDARDGRLVSILSYQRETINEVRAAPPSIARVAAFGFDVRQPRLYAGQPGALSTKIPACIASNSKAVTQGNLPQFSESPLRETYVAGTPTPHSSSGSLAAEEQLVYLFASASKACTVALWRVDLGLVVEQTAREAIAAQTV,not soluble
5,MAHHHHHHMNRGCLLGEYTGRCLGESAHVRSNLICALCCVTRSQIIYIYIYIYFAVVVEEVPIVTCTNIIMSSVVSRREETHFCLRYFRIPSNKKNVFSLLYRQLLFNSLINHCF,not soluble
6,MAHHHHHHMNRIPAATRNAPMYATAMSQFAVCRQPWNEYISLLTKDDAQPFHTTPQEKPAYRGRKRGREGWLFGQQVQLHYHRFPDEQLFTNLTRWRMGDTVGDVAIQQFRNAQPFDIEDKDPQGFQRPAPEVYMKLNYKNPATISRFLTRTGHMYPQDIMPLNPEAVVKLRVAKAQAIRIGLYPRFGNPFWFRSQSFRPKAYQENYDPTTYSTKHTMEHFAYNWVQTDRIRQYFKGLEELHQSRRATASSGGGGVTSEHKQQSQLYALDNMSIEMHRNAPSYRADVERSIKKPTVPGLMSTKGMKKKFHNLYSSTSTKRMGFSNPTLGIKKV,not soluble
7,MAHHHHHHMPGFADSFNGVAVGSSTMLTRGTHSSQDAVHHTDTATAAEWRALYGASADMMNSTAHTYRACGAGVSYMTPIFHLTANDVTILSMEHNNHCRLLGIATSKNQIFVTWTQVMPVIENMGMLRAPDDDLFGGEQATPVDERLLEWDPATMSILIDELPYTCTELSWAPWQQGIYLAGLCPGHGIRLYRYSHGNWALDDCIRSTESVSCSISTNFTVACACRRGRVELWVRGSTASGTAVAPGPSPSLSAGDSTATNGGDGVSHTSWVLCRVLTLPFSEDDNGGSRTHDGDRSGGAGSPSAVAARHRRRDILGVAWVESGALLAAGDQGGSVYVVAATQDSTRLGEVVYHQLPSALCGPCKQVAWSPSSGRSFLCLAMVFTTCVRLVLFRRPSFMNAAGLPHAARSVGGSGGGRMGWAHSSVAPIAASSLEVLAMTQVPCEEVAKLSWNNTGTRFVTAHLDSSVNIWAVDFRYRHPVKGDGANATSGREEANTLHSVDSARMDRQVETSVFAAAGEERLGIVVSVQCTSAVHPYHAVSK,not soluble
8,MAHHHHHHMPLLTRGQRRLLEYVAHDGGTKGLKRRRMEDVAPVLHKRKQKWTHKFTTKTASADASLAEVPLSSEVLEFLREYCPKVPRKLRQSQLRVISDLSGAFGGNSEKEEGETFTVKRVELKENAEVFAVVALAALQRRALWSGSTPQGASLFVLVETDADAAALAAHMGNTYKMTRTLVLDGSRFPTFPAVEKDDAATATTLAERTALVIASLQAFVTVDARSAIWKFIGAYAIWLKSSKPPALLQEMADGTRSELEENCAGSGGVVWDMPRWLLSLLHRESPSLHP,not soluble
9,MAHHHHHHMPNNDSHDAQLLRHYAQFFPNVLFTSEEEMEKYCQDARPDAVKKVLDLPEGEEVPEDAMNDPRAHLYILKHIVGRNATTAAFVALRGSDKQKVVAKFIMLNDEKQAAYARSEVHCLAACDHFGIVKHYDDLKSEDKLLLIMEYGSGGDLNKQIKQRLKERLPFKEHEAGLLFYQIVLALDEVHSRKMMHRDLKSANIFLMPTGIIKLGDFGFSKQYTDSVSLDVGSSFCGTPYYLAPELWERKRYSKKADMWSLGVILYELLTLHRPFKGPSQREIMQQVLYGNYDPFPCGVSDGMKAVMEPLLSKDPALRPTTTQLLHTELMKYVANIFEEIVRNSEVIEKHDKERILRQLAESRAKAPPPNSIQAGAVSNDVVREGYLLKYSSDMKWKKRYFSIKNGQLRISLTDNPEKDGVSPKSASLETVNDVFPVPEAYCRSNPHQLVIWFTNGQKIIAMAKSAEERDQWISDFQRACGM,soluble
10,MAHHHHHHMPRKETKKRKRAPSSAKESVSSTDEQGKRGGAFSKFKEFDVSELLQKPQEVPEIQPVVEEQPCSPCDEVVADPPPLTATDTVEATSEEPAAPIPQLIPPEPLKDLPPDEEFVPLPTIQVVPMMNRALEAQSGLLKEPAPPASIQRVTQPGALPPAMPTALMELLSG,soluble
11,MAHHHHHHMPSVATASTRAVLAYPTDDAKLLVELTPTDRVAGGGSCGGFSGGGPMTQSDLGVGGSRMLQSLLVTRNVRDHLLDLRFSEAALSAQVTLQGDTVRDLIADITAAQSTEVSIRIDPKVGVILRGEGGPYGEVEAHVHATSEALLSLSREQSASTRVYTHHLALACGARGGTGGGGSSGSSAGAGGTGGGRLRGTGASVRDGRLSNADYILMGLAASAAGAGSSGGGGGAAVGTLFGGFERLTLQINAQRQLSVLHTQRDHELKVFVTVVVMPLSSVCDML,not soluble
12,MAHHHHHHMQETQELRCATTQMAPAVIFPLPPPLRGSYIDRKPTAASFNEHHATASFRHHMIASADVSHRPRHFYFASGTRNDTGTRSVKEGERKQLKQQTNVEVDSVAYGDQLDELSARWAAKFYGQVTFGPRNYPYPSSRWLARRFQMKKHRIIKRFRFRRYKLAAVANLPFAKMIRVGMLPELKSSKTKRGDVVDPTLSGQLVSAVKNTGEKRKGQRTRPKSKYQV,soluble
13,MAHHHHHHMQKHNIKLNQNQDISQLFHDEVPLFDNSITSKDKEVIETLSEIYSIVITLDHVEKAYLKDSIDDTQYTNTVDKLLKQFKVYLNSQNKEEINKHFQSIEAFCDTYNITASNAITRLERGIPITAEHAISTTTSAPSGDNKQSSSSDKK,soluble
14,MAHHHHHHMQMRRDALGNGKALEFAKELSLAYKQVIQATQHIGKQRQALTGCTDLSVKTREWAAAEHDIAGALEKYGAAPYWVEQRGWRPGRLQSFEAAHSRASSGTEVSYLCSRLRGYVKAAFTAHVTKPPKLNASEVDVAELLTFFTGSGDGALVVEVALAKFFVVENMHVRAPELWVMNYLLHCYGVEEGIMLAHEADVVDGGFKQQGGGAFEEQFLIQKNIWAVSQVLVPHCYAVTRCDEATAKAGVEACVRCEGTEGQGTEGAFPTWPGTPPASLPPAYRLARSVNDYGKEAGEDKTSRIIGELDGVIYDASARQVLLVLEAKQNIDVCKAFKQKERLYNALDATRKTLSQASQGAALTAVQLSAENETKTATTTAAGRNATPAAEAACAASTKLHTEPVVLRFFVTPTTAAEAARENFSVNGCSLVTGVGAEPAANFQDMRNSGDMASAAAPPVRSKAAAARLATAGNPFFTQDNFAAFFGATASAVQGDSTAPSPTPTRSDSMTPRHLGRDQRWIYLTSLSTGNSPGARTTVPAPGGTIHMVELTLVKTACNFVAEAYDSYFQISTLPPTATPALQSLVSAMRVCSAYAPETEPMALFHLFLELPPQECISARAETAAVSRSDPCEYVLHLFRHDVRCKDGAAALEQVWLRENFIDGLVLSEHSFI,not soluble
